What was measured:
recHopQ = recHopQ (Helicobacter pylori); test: BLI
[1] = target: T1, human CEACAM1-Fc fusion protein (UniProt P13688 35-428); test: ELISA
T1 chain: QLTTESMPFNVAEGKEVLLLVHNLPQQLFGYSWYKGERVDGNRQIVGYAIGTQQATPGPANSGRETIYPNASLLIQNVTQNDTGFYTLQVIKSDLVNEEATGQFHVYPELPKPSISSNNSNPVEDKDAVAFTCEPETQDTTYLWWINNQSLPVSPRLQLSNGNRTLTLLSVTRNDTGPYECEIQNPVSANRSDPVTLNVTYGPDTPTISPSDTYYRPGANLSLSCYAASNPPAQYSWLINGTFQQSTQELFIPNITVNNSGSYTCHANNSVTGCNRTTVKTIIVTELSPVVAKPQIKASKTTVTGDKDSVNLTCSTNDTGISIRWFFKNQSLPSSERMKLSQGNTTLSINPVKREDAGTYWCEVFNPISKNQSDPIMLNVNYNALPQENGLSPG

[2] = target: T1, human CEACAM1-Fc fusion protein; test: BLI
CC1-N-Fc = test: ELISA

B1: CEACAM1-Fc (Fc fusion)
chain: QLTTESMPFNVAEGKEVLLLVHNLPQQLFGYSWYKGERVDGNRQIVGYAIGTQQATPGPANSGRETIYPNASLLIQNVTQNDTGFYTLQVIKSDLVNEEATGQFHVYPELPKPSISSNNSNPVEDKDAVAFTCEPETQDTTYLWWINNQSLPVSPRLQLSNGNRTLTLLSVTRNDTGPYECEIQNPVSANRSDPVTLNVTYGPDTPTISPSDTYYRPGANLSLSCYAASNPPAQYSWLINGTFQQSTQELFIPNITVNNSGSYTCHANNSVTGCNRTTVKTIIVTELSPVVAKPQIKASKTTVTGDKDSVNLTCSTNDTGISIRWFFKNQSLPSSERMKLSQGNTTLSINPVKREDAGTYWCEVFNPISKNQSDPIMLNVNYNALPQENGLSPG
Binder B1 has a Kd (recHopQ) of 183 nM.

B2: CC1/3/5-Sab (antibody, V domains shown)
VH: EVQLQQSGPELVKPGTSVKMSCKASGYTFTTYVMHWVQQKPGQGLDWIGFFNPYNDGTKYNEKFKGKATLTSDKSSSTAYMELSSLTSEDSAVYYCARWAYDGSYAYWGQGTTLTVSS
VL: DIQMTQSSSYLSVFLGGRVTITCKASDHINNWLAWYQQKPGNAPRLLISGATSLETGVPSRFSGSGSGKDYTLSIISLQTEDVATYYCQQYWRTPFTFGSGTKLEIK
Binder B2 has an IC50 [1] of 0.146 nM and a Kd [2] of 54 nM.

B3: mAb CC1/3/5-Sab (antibody, V domains shown)
VH: EVQLQQSGPELVKPGTSVKMSCKASGYTFTTYVMHWVQQKPGQGLDWIGFFNPYNDGTKYNEKFKGKATLTSDKSSSTAYMELSSLTSEDSAVYYCARWAYDGSYAYWGQGTTLTVSS
VL: DIQMTQSSSYLSVFLGGRVTITCKASDHINNWLAWYQQKPGNAPRLLISGATSLETGVPSRFSGSGSGKDYTLSIISLQTEDVATYYCQQYWRTPFTFGSGTKLEIK
B3 showed an IC50 (CC1-N-Fc) of 0.107 nM.
